Assays:
[1] = test system: L540 human Hodgkin's disease tumors; test: Growth of L540 tumors after immunoglobulin-tTF conjugate and/or etoposide; assay type: in vivo, mice; details: day 14
Protocol: (§1) The tumor test systems were: i) L540 human Hodgkin's disease tumors growing in SCID mice; ii) C1300 Muγ (interferon-secreting) neuroblastoma growing in nu/nu mice; iii) H460 human non-small cell lung carcinoma growing in nu/nu mice. To establish solid tumors, 1.5×10^7 tumor cells were injected subcutaneously into the right anterior flank of SCID or BALB/c nu/nu mice (Charles River Labs., Wilmingham, Mass.). When the tumors had grown to various diameters, mice were assigned to different experimental groups, each containing 4 to 9 mice.
(§2) Other mice received equivalent quantities of bispecific antibody alone. The injections were performed over ˜45 seconds into one of the tail veins, followed by 200 μl of saline. The infusions were repeated six days later. Perpendicular tumor diameters were measured at regular intervals and tumor volumes were calculated.
Mice bearing L540 human Hodgkin's disease tumors were treated with a complex of tTF219 and a bispecific antibody together with the anti-cancer drug, etoposide, at a conventional dose.

mouse endothelial cells = test: Cell based two stage coagulation assay after TNFα stimulation
Protocol: (§3) Mouse endothelial cells were seeded in 48 well tissue culture plates and allowed to adhere overnight. Cells were stimulated with TNFα at the following concentrations: 500 U/ml; 100 U/ml; 20 U/ml; 4 U/ml; 0.8 U/ml; 0.16 U/ml; and with medium only.
Endothelial cells were also tested for coagulant activity in a cell based two stage coagulation assay. After incubation with TNFα, cells were washed and incubated with coagulation factor mix (0.5 μg/ml factor VIIa in a mix containing 2.8 μg/ml factor IX, 3.4 μg/ml factor X, 50 μM phospholipids, in calcium buffer). The supernatant of wells was transferred into a 96 well ELISA plate. Substrate S2765 was added and Factor Xa generation measured.

bEnd 3 cells = test: Cell bound coagulation assay on stimulated endothelial cells (Factor Xa generation); assay type: cell-based, mouse
Protocol: (§4) To assay the coagulation induction of stimulated versus unstimulated endothelial cells, bend 3 cells were seeded in 48 well tissue culture plates at a density of 1×10^4 cells per well and allowed to adhere overnight. Cells were stimulated with endotoxin (0.5 μg/ml and 10 μg/ml) or TNFα (500 U/ml) for 4 h at 37° C. […] After incubation for 45 min at room temperature, cells were washed and incubated with various coagulation factor mixes as follows: (1) 0.5 μg/ml factor VIIa in a mix containing 2.8 μg/ml factor IX, 3.4 μg/ml factor X, 50 μM phospholipids, in calcium buffer (as specified above); (2) 0.01 μg/ml factor VIIa in a mix as in (1); (3) 2 μg/ml factor VII (Calbiochem-Novabiochem, San Diego, Calif.) in a mix as in (1); (4) 2 μg/ml factor VII. 0.01 μg/ml factor VIIa in a mix as in (1). The supernatant of wells was transferred into a 96 well ELISA plate. Substrate S2765 was added and Factor Xa generation measured alongside different concentrations of Factor Xa standard (7 nkatS2222; 0.7 nkatS2222; 0.07 nkatS2222). OD405 nm values were calculated as nkatS2222 Factor Xa from the Factor Xa standard curve.
as §4, with “bEnd” for “To assay the coagulation induction of stimulated versus unstimulated endothelial cells, bend”, “with” for “with various”, “mix” for “mixes”, “follows:” for “follows: (1)”, “buffer;” for “buffer (as specified above); (2) 0.01 μg/ml factor VIIa in a mix as in (1); (3) 2 μg/ml factor VII (Calbiochem-Novabiochem, San Diego, Calif.) in a mix as in (1); (4) 2 μg/ml factor VII. 0.01 μg/ml factor VIIa in a mix as in (1). The”

[2] = test system: VCAM-1 on mouse endothelial cells; test: VCAM-1 upregulation on endothelial cells by TNFα (FACS); assay type: cell-based
Protocol: as §3
Endothelial cells were then investigated for upregulation of the adhesion molecule VCAM-1 by fluorescence activated cell stain (FACS). To this end, cells were stained with an antibody against murine VCAM-1, followed by an appropriate FITC-conjugated secondary antibody. Fluorescent cells were detected on a flow cytometer (Becton Dickinson, San Jose, Calif.).

[3] = test system: tissue factor on HUVEC cells; test: FACS analysis of tissue factor expression on endothelial cells; assay type: cell-based, human; details: TNFα 500 U/ml, LPS 10 μg/ml, VEGF 1 nM, alone or in combination, 6 h
Protocol: To analyze tissue factor expression on the surface of endothelial cells, HUVEC cells were incubated with TNFα (500 U/ml), LPS (10 μg/ml) or vascular endothelial growth factor (VEGF, 1 nM) alone or in combination for 6 h at 37°. Cells were then detached and stained for surface expression of human tissue factor with a sheep-anti-human tissue factor antibody (Haemochrom, Essen, Germany) and an appropriate FITC-conjugated secondary antibody. Fluorescent cells were detected on a flow cytometer (Becton Dickinson, San Jose, Calif.).

[4] = test system: HT29 human colorectal carcinomas; test: Anti-tumor effects of tTF219 in HT29 tumors; assay type: in vivo, Nu/nu mice; details: large (1200 mm^3) tumors, i.v.
Protocol: Anti-tumor effects were also observed in mice bearing HT29 human colorectal carcinomas. Nu/nu mice bearing large (1200 mm^3) tumors on their flanks were injected intravenously with tTF219 or PBS (control), and growth of the tumors was monitored each day for 10 days. The tumors in the tTF219 treated mice discontinued growth for about 7 days after treatment, whereas the tumors in mice treated with PBS continued to grow unchecked.

[5] = test system: 3LL mouse lung carcinoma vessels; test: In vivo tumor thrombosis by tTF, 3LL; design: species or system C57BL/6 mice; details: large (>800 mm^3) tumors
Source text: (§5) Tumor test systems were of four types: i) 3LL mouse lung carcinoma growing subcutaneously in C57BL/6 mice; ii) C1300 mouse neuroblastoma growing subcutaneously in BALB/c nu/nu mice; iii) HT29 human colorectal carcinoma growing subcutaneously in BALB/c nu/nu mice; and iv) C1300 Muγ mouse neuroblastoma growing subcutaneously in BALB/c nu/nu mice. The C1300 Muγ tumor is an interferon-γ secreting transfectant derived from the C1300 tumor (Watanabe et al., 1989).
(§6) To establish tumors, 10^6 to 1.5×10^7 tumor cells were injected subcutaneously into the right anterior flank of the mice. When tumors had grown to various sizes, mice were randomly assigned to different study groups. […] Fab′, or bispecific antibody. Other mice received equivalent quantities IgG, Fab′ or bispecific antibody alone. The injections were performed slowly into one of the tail veins over approximately 45 seconds, usually followed by 200 μl of saline.
(§7) Twenty-four hours after being injected with tTF or immunoglobulin-tTF conjugates, the mice were anesthetized with metophane and were exsanguinated by perfusion with heparinized saline. Tumors and normal tissues were excised and immediately fixed in 3% (v/v) formalin. Paraffin sections were cut and stained with hematoxylin and eosin. Blood vessels having open lumens containing erythrocytes and blood vessels containing thrombi were counted. […]

[6] = test system: C1300 Muγ mouse neuroblastoma vessels; test: In vivo tumor thrombosis by tTF, C1300 Muγ; design: species or system BALB/c nu/nu mice
Source text: as §5, §6, §7

[7] = test system: H460 human lung carcinomas; test: Anti-tumor effects of tTF219 in H460 tumors; assay type: in vivo, nu/nu mice
Protocol: as §1, §2
In addition to the effects in mice bearing C1300 Muγ tumors, similar anti-tumor effects were observed using other tumor types. […] The second treatment with tTF219 was given when the tumors were larger (900 mm^3) and caused the tumors to regress to 550 mm^3 before regrowing.

C1300 Muγ tumors = test: Anti-tumor effects of tTF and immunoglobulin-tTF in C1300 Muγ tumors; assay type: in vivo, nu/nu mice; details: 300 mm^3 tumors
Protocol: as §1, §2
Mice bearing small (300 mm^3) C1300 Muγ tumors were injected intravenously with 16-20 μg tTF219. The treatment was repeated one week later. […] One week after the second treatment with tTF219, tumors were 60% of the size of tumors in mice receiving diluent alone. The greater effectiveness of the second injection probably derives from the greater thrombotic action of tTF219 on vessels in large tumors, observed above.
Mice bearing small (300 mm^3) subcutaneous C1300 Muγtumors were treated with tTF219 or with a complex of tTF219 and a bispecific antibody, OX7 Fab′/10H10 Fab′, not directed to a component of the tumor environment. The treatment was repeated 6 days later.

[8] = test system: A20 lymphoma cells (I-A^d positive), mouse or human plasma; test: In vitro coagulation assay on A20 cells with capture bispecific antibody B21-2/10H10; assay type: cell-based
[9] = test system: HT29 (human colorectal carcinoma) xenograft; test: Tumor necrosis by tTF constructs with Factor VIIa, HT29 xenograft; assay type: in vivo, BALB/c nu/nu mice; details: single agents; 24 hours
[10] = test system: C1300 mouse neuroblastoma vessels; test: In vivo tumor thrombosis by tTF, C1300; design: species or system BALB/c nu/nu mice
Source text: as §5, §6, §7

COc1cc([C@@H]2c3cc4c(cc3[C@@H](O[C@@H]3O[C@@H]5CO[C@@H](C)O[C@H]5[C@H](O)[C@H]3O)[C@H]3COC(=O)[C@H]23)OCO4)cc(OC)c1O [etoposide]
average tumor volume [1]: 1400 mm^3

TNFα
TNFα at which an increase in coagulation versus negative control could be detected (mouse endothelial cells): 0.16 U/ml | dose for coagulation increase lower than for VCAM-1 increase (mouse endothelial cells): 125 fold | Factor Xa generation (bEnd 3 cells; cells stimulated with TNFα (500 U/ml), then incubated with row agent (row Medium = stimulant alone), mix with 0.5 μg/ml factor VIIa): 0.35 nkats2222 | Factor Xa generation due to Factor VIIa production (bEnd 3 cells; cells stimulated with TNFα (row Medium = stimulant alone), mix with 2 μg/ml factor VII and 0.01 μg/ml factor VIIa): 1.23 nkats2222 | TNFα required for a measurable increase of VCAM-1 expression [2]: 20 U/ml | tissue factor expression on the surface of HUVEC [3]: upregulated tissue factor expression

B1: tTF219: residues 1-219 of TF plus an additional glycine at the N-terminus (protein)
chain: GSGTTNTVAAYNLTWKSTNFKTILEWEPKPVNQVYTVQISTKSGDWKSKCFYTTDTECDLTDEIVKDVKQTYLARVFSYPAGNVESTGSAGEPLYENSPEFTPYLETNLGQPTIQSFEQVGTKVNVTVEDERTLVRRNNTFLSLRDVFGKDLIYTLYYWKSSSSGKKTAKTNTNEFLIDVDKGENYCFSVQAVIPSRTVNRKSTDSPVECMGQEKGEFRE
time of discontinued tumor growth after treatment [4]: about 7 days | tumor vessels thrombosed, average [5]: 62% | tumor vessel thrombosis ([6]; 24 hours after injection): practically all vessels in all regions of the tumor were thrombosed | tumor vessel thrombosis ([6]; small (<500 mm^3) tumors): largely unaffected | effect on growth rate ([7]; first treatment, tumors 250 mm^3): little effect on growth rate | tumor volume to which tumors regressed ([7]; second treatment, given at 900 mm^3): 550 mm^3 | tumor size, of tumors in mice receiving diluent alone (C1300 Muγ tumors; 16-20 μg i.v., repeated one week later, one week after second treatment): 60% | tumor size, of controls receiving diluent alone (C1300 Muγ tumors; treatment repeated 6 days later, fourteen days after the first injection): 75% | plasma coagulation time ([8]; 10^−10 M tTF219, 13.5 nM Factor VIIa): 20 s | plasma coagulation time ([8]; 10^−10 M tTF219, absence of Factor VIIa): 60 s | increase in coagulation-inducing potency ([8]; presence of 0.1 nM Factor VIIa): 2-5 fold | enhancement in coagulation-inducing potency ([8]; presence of 13.5 nM Factor VIIa): ~100 fold | tumor necrosis [9]: some necrosis | tumor vessel thrombosis ([10]; large tumors (>1000 mm^3), 24 hours after injection): virtually all vessels were thrombosed | tumor vessel thrombosis ([10]; small (<500 mm^3) tumors): largely unaffected

— patent US20030124132A1 (University of Texas, published 2003)
